Reference: article doi:10.1101/238154

Key:
[1] = biological target: FlAsH tagged K63-linked diubiquitin (UniProt P0CG47); test: fluorescence polarisation
[2] = biological target: SAGA DUB module containing Ubp8^C146S (yeast) (UniProt P50102); test: ITC
[3] = biological target: SAGA DUB module containing Ubp8^C146A (yeast) (UniProt P50102); test: ITC
Chain of SAGA DUB module containing Ubp8^C146A (yeast) (P50102 whole entry C146A, chain 1 of 4): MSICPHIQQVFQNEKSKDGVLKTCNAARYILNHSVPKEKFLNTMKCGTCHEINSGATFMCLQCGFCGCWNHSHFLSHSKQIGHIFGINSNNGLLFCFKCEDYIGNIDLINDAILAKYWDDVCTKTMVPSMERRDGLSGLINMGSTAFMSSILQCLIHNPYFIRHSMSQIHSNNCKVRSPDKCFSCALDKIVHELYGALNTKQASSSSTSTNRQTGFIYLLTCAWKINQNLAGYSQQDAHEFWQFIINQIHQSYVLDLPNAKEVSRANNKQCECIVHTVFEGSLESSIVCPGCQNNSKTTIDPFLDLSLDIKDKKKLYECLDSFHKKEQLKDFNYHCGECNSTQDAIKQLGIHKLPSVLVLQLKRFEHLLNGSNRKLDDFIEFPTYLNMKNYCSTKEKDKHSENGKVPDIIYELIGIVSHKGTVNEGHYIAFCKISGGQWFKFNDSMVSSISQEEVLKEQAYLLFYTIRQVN
Chain of SAGA DUB module containing Ubp8^C146A (yeast) (Q03067 whole entry, chain 2 of 4, further chain): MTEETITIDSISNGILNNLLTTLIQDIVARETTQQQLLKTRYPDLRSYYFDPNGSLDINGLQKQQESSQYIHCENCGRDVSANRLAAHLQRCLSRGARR
Chain of SAGA DUB module containing Ubp8^C146A (yeast) (Q6WNK7 whole entry, chain 3 of 4, further chain): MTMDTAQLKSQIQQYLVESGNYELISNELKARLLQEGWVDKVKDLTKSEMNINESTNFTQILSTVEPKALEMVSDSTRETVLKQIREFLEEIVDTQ
Chain of SAGA DUB module containing Ubp8^C146A (yeast) (P53165 1-96, chain 4 of 4, further chain): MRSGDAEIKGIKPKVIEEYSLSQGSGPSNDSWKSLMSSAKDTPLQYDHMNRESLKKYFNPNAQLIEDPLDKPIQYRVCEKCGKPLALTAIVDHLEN

Chain of SAGA DUB module containing Ubp8^C146S (yeast) (P50102 whole entry C146S, chain 1 of 4): as the sequence (P50102 whole entry C146A, chain 1 of 4) above, with A146S counted along it
Chain of SAGA DUB module containing Ubp8^C146S (yeast) (Q03067 whole entry, chain 2 of 4, further chain): as the sequence (Q03067 whole entry, chain 2 of 4, further chain) above
Chain of SAGA DUB module containing Ubp8^C146S (yeast) (Q6WNK7 whole entry, chain 3 of 4, further chain): as the sequence (Q6WNK7 whole entry, chain 3 of 4, further chain) above
Chain of SAGA DUB module containing Ubp8^C146S (yeast) (P53165 1-96, chain 4 of 4, further chain): as the sequence (P53165 1-96, chain 4 of 4, further chain) above

## OTUD1^C320A catalytic domain (residues 287-435) (from UniProt Q5VV17 287-435) (domain or fragment)
[1]
  Kd: 40 µM

## K48-linked diubiquitin (from UniProt P0CG47 1-76)
[2]
  Kd: 4.6 µM
[3]
  Kd: 0.47 µM
